The series concerns Hfq (His-tagged) (Burkholderia cenocepacia J2315?). The experiment in a line: EMSA. The following applies: RNA binding buffer (composition in cited ref. 21), 25 ul, 30 min at 25 C, salt and pH not stated. For orientation: In EMSA bound probe runs differently from free probe, usually more slowly.

Turning to h2cR sRNA (136 nt), where the note is “apparent Kd, 2.5 nM RNA, 0-10 nM Hfq6, excess yeast tRNA, excess unlabelled yeast …”, the Kd is 1.5 nM.

Regarding hfq2 5'-UTR (216 nt), the Kd (excess unlabelled yeast tRNA) is 9.5 nM.

These data come from PMC3474761.
